Reference: publication PMC6070508

Tests used:
[1] = biological target: 2:1 8D6 Fab/IgE-Fc complex; experiment: SPR; IgE-Fc captured on an 8D6 Fab surface, then saturated with 100 nM 8D6 Fab (2:1 8D6 Fab/IgE-Fc complex); derCD23 injected at 10 to 0.156 uM; HBS-P with 5 mM CaCl2, 25 °C
[2] = biological target: 1:1 8D6 Fab/IgE-Fc complex; experiment: SPR; IgE-Fc captured on an 8D6 Fab surface (1:1 8D6 Fab/IgE-Fc complex); derCD23 injected at 10 to 0.156 uM; HBS-P with 5 mM CaCl2, 25 °C
Chain of 1:1 8D6 Fab/IgE-Fc complex (heavy, as listed by the source, chain 1 of 2): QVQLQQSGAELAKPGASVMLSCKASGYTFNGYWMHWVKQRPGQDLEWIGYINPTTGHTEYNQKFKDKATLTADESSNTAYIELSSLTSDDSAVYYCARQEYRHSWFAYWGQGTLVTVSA
Chain of 1:1 8D6 Fab/IgE-Fc complex (light, as listed by the source, chain 2 of 2): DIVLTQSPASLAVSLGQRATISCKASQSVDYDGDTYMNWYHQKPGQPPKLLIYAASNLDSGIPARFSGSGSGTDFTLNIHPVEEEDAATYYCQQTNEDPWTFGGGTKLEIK

Chain of 2:1 8D6 Fab/IgE-Fc complex (heavy, as listed by the source, chain 1 of 2): as the sequence (heavy, as listed by the source, chain 1 of 2) above
Chain of 2:1 8D6 Fab/IgE-Fc complex (light, as listed by the source, chain 2 of 2): as the sequence (light, as listed by the source, chain 2 of 2) above

Which results are given for derCD23 (domain or fragment)?
Kd [1]: 1700 nM; Kd [2]: 1700 nM
